Source: the nanobody polyreactivity screen of Harvey et al. (2022)

Test: yeast display, Sf9 membrane polyspecificity reagent, FACS + sequencing; frameworks hold sequencing errors
Method in brief: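 Galactose induction of a Saccharomyces cerevisiae BJ5465 synthetic nanobody display library ran 36–48 hours. The cells were then stained for 1 hour at 4 °C with 10% biotinylated, detergent-solubilized Sf9 membrane reagent, pulled down on streptavidin microbeads and FACS-sorted into low and high (top ~1%) gates on expression and reagent-binding fluorescence. Labels for polyreactivity follow the gate of origin.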

Sequence	polyreactivity (PSR sort gate)
QVQLVESGGGLVQAGGSLRLSCAASGIIFQSYTMGWYRQPPGKERELVAAIDSGGSTYYADSVKGRFTISRDNAKNTVYLQMNSLKPEDTAVYYCATDYPLSWSPLYDYDYWGQGTQVTVSS	low polyreactivity
QVQLVESGGGLVQAGGSLRLSCAASGIIFRDYDMGWYRQAPGKERELVAAITWDGGSTYYADSVKGRFTISRDNAKNTVYLQMNSLTPEDTAVYYCAADSRYHYYVGYYYWGQGTQVTVSS	high polyreactivity
QVQLVESGGGLVQAGGSLRLSCAASGIIFRGNAMGWYRQAPGKERELVAGISSRGGSTYYADSVKGRFTISRDNAKNTVYLQMNSLKPEDTAVYYCAAQYRSYLSGYGYWGQGTQVTVSS	high polyreactivity
QVQLVESGGGLVQAGGSLRLSCAASGIIFRGYVMGLYIQAPGKERELVAAINSSTGSTYYADSVKGRFTISRDNAKNTVYLQMNSLKPEDTAVYYCNAEDRGSTYVDFDYWGQGTQVTVSS	low polyreactivity
QVQLVESGGGLVQAGGSLRLSCAASGIIFRLNAMGWYRQAPGIERELVAAILRRGGSTYYADSVKGRFTISRDNAKNTVYLQMNSLKPEDTAVYYCAKDPHGSDFGYWGQGTQVTVSS	low polyreactivity
QVQLVESGGGLVQAGGSLRLSCAASGIIFRNYAMGWYRPAPGKEREFVASITKRGGSTYYADSVKGRFTISRDNAKNTVYLQINSLKPEDTAVYYCNTQWYRGRTEYGYWGQGTQVTVSS	high polyreactivity
QVQLVESGGGLVQAGGSLRLSCAASGIIFRPYAMGWYRQAPGKERELVAAITWSGTSTYYADSVKGRFTISRDNAKNTVYLQMNSLKPEDTAVYYCAATWSYGVSWYEYWGQGTQVTVSS	high polyreactivity
QVQLVESGGGLVQAGGSLRLSCAASGIIFRRNAMGWYRQAPGKERELVASITSGGSTNYADSVKGRFTISRDNAKNTVYLQMNSLKPEDTAVYYCATVRKYRAMDYWGQGTQVTVSS	high polyreactivity
QVQLVESGGGLVQAGGSLRLSCAASGIIFRRYAMGWYRQAPGKERELVAAIRTSGGNTYYADSVKGRFTISRDNAKNTVYLQMNSLKPEDTAVYYCAARRHYTYGNGPSRGGQMDYWGQGTQVTVSS	high polyreactivity
QVQLVESGGGLVQAGGSLRLSCAASGIIFRRYAMGWYRQAPGKERELVAAITSGGSTYYADSVKGRFTISRDNAKNTVYLQLHSLKPEDTAVYYCNKGGYAIRYDYYWGQGTQVTVSS	high polyreactivity
QVQLVESGGGLVQAGGSLRLSCAASGIIFRRYAMGWYRQAPGKERELVATITRSGSTNYADSVKGRFTISRDNAKNTVYLQMNSLKPEDTAVYYCNADYIRGGWYSEDYWGQGTQVTVSS	high polyreactivity
QVQLVESGGGLVQAGGSLRLSCAASGIIFRRYAMGWYRQAPVKERELVAAITRGGITYYADSVKGRFTISRDNAKNTVYLQMNSLKPEDTAVYYCAALAYPQEYDYWGQGTQVTVSS	low polyreactivity
QVQLVESGGGLVQAGGSLRLSCAASGIIFRSYAMGWYRQAPGKERELVAAITGGGTTNYADSVKGRFTISRDNAKNTVYLQMNSLKPEDTEVYYCNAGLDWFWFNEMDYWGQGTQVTVSS	low polyreactivity
QVQLVESGGGLVQAGGSLRLSCAASGIIFRSYAMGWYRQAPGKERELVASITSGGSTNYADSVKGRFTNSRDNAKNTVYLQMNSLKPEDTAVYYCAADYYYTSFGGYDYWGQGTQVTVSS	high polyreactivity
QVQLVESGGGLVQAGGSLRLSCAASGIIFRWYAMGWYRQAPGKERELVAAISRSGSSTYYADSVKGRFTISRDNAKNTVYLQMNSLKPEDTAVYYCNAEYQAPTEKGRYYYPWPYEYWGQGTQVTVSS	high polyreactivity
QVQLVESGGGLVQAGGSLRLSCAASGIIFRYNAMGWYRPAPGKERELVAAITSGGITKYADSVKGRFTISRDNAKNTVYLQMNSLKPEDTAVYYCNAEYGFFRAGSRGEYWGQGTQVTVSS	low polyreactivity
QVQLVESGGGLVQAGGSLRLSCAASGIIFRYNAMGWYSQAPGKDRELVAAITYRGGSTRYADSVKGRFTISRDNAKNTVYLQMNSLKPEDTAVYYCNAQRRTYIYDYWGQGTQVTVSS	high polyreactivity
QVQLVESGGGLVQAGGSLRLSCAASGIIFRYNTMGWYRQEPGKERELVAAISWSGDSTYYADSVKGRFTISRDNAKNTVYLQMNSLKPEDTAVYYCARSQFSRSPSRMGYWGEGTQVTVSS	high polyreactivity
QVQLVESGGGLVQAGGSLRLSCAASGIIFRYYAMGLYRQAPGKERELVAAITTGGSTYYADSVKGRFTISRDNAKNTVYLQMNSLKPEDTAVYYCAAQILVRHIPYYYWGQGTQVTVSS	high polyreactivity
QVQLVESGGGLVQAGGSLRLSCAASGIIFRYYAMGWYRQAPGKEREFVAAINYSGGSTYYADSVKGRFTISRDNAKYSVYLLMNSLKPEDTAVYYCAARSYTYTAPIYGYWGQGTQVTVSS	high polyreactivity
QVQLVESGGGLVQAGGSLRLSCAASGIIFRYYAMGWYRQAPGKERELVAGITSNGGSTYYADSVKGRFTISRDNAKNTVYLQMNSLKPVDTAVYYCAAVSLYVWWALEYWGQGTQVTVSS	high polyreactivity

Sequence	polyreactivity (PSR sort gate)
QVQLVESGGGLVQAGGSLRLSCAASGIIFSDYAMGWYRQAPGKERELVATITRSVRTSYADSVKGRFTISRDNAKNTVYLQMNSLKPEDTAVYYCNADFVGAVIAYDYLGQGTQVTVSS	low polyreactivity
QVQLVESGGGLVQAGGSLRLSCAASGIIFSGYAMGWYRQAPGKERELVAAITGSGDITYYADSVKGRFTISRDNAKNTVYLQMNSLKPEDTAVYYCADVASSQYRAEEYNYWGQGTQVTVSS	low polyreactivity
QVQLVESGGGLVQAGGSLRLSCAASGIIFSLYAMGAYIQATGKERELVAAITTGGRTYYADSVKGRFTISRDNAKYSVYLQMNSLKPEDTAVYYCAALGPWQGGTTLSTNRGYWGQGTQVTVSS	high polyreactivity
QVQLVESGGGLVQAGGSLRLSCAASGIIFSPYARGWYRQAPGKERELVAAISYSGGSTYYADSVKGRFTISRDNAKNTVYLQMNSLKPEDTAVYYCAVVYSYYLAVLGYWDYDYWGQGTQVTVSS	low polyreactivity
QVQLVESGGGLVQAGGSLRLSCAASGIIFSQYAMGWYRQAPGKERELVASISRSGGITYYADSVKGRFTISRDNAKNTVYLQMNSLKPEDTAVYYCNAAKACREQWTSFDYWGQGTQVTVSS	high polyreactivity
QVQLVESGGGLVQAGGSLRLSCAASGIIFSRYAMGWYRQAPGKERELVAAISTSGGRTFYADSVKGRFTISRDYAKNTVYLQMNSLKPEDTAVYYCNAEIQRGPGRGGYNYWGQGTQVTVSS	high polyreactivity
QVQLVESGGGLVQAGGSLRLSCAASGIIFSSNVMGWYRQAPGKERELVAAISRSGDRSYYADSVKGRFTISRDNAKITVYLQMNSLKPEDTAVYYCAGRVRVNVVSNGYWGQGTQVTVSS	high polyreactivity
QVQLVESGGGLVQAGGSLRLSCAASGIIFSSNVMGWYRQAPGKERELVAAISRSGDRTYYADSVKGRFTISRDNAKNTVYLQMNSLKPEDTAVYYCAARERVNVVSNGYWGQGTQVTVSS	high polyreactivity
QVQLVESGGGLVQAGGSLRLSCAASGIIFSVYAMGWYRQAPGKERELVAAITRSGSRTYYADSVKGRFTISRDNAKNTVYLQMNSLKPEDTAVYYCNAVPRVTRPSAVEEYDYWGQGTQVTVSS	high polyreactivity
QVQLVESGGGLVQAGGSLRLSCAASGIIFSWNTMGWYRQAPGKERELVAAISSSGGSTYYADSVKGRFTISRDNAKNTVYLQMNSLKPEDTAVYYCAADVYHWIHEYDYWGQGTQVTVSS	low polyreactivity
QVQLVESGGGLVQAGGSLRLSCAASGIIFSWYDMGWYRQAPGKERELVAAISSGDRTNYADSVKGRFTISRDNAKNTVYLQMNSLKPEDTAVYYCAADLFPIAGEYDYWGQGTQVTVSS	high polyreactivity
QVQLVESGGGLVQAGGSLRLSCAASGIIFSYNTMGWYRPAPGKERELVAAISRTGGRTYYADSVKGRFTNSRDNAKITVYLQMNSLKPEDTAVYYCAAEQQYASMGYDYWGLGTQVTVSS	high polyreactivity
QVQLVESGGGLVQAGGSLRLSCAASGIIFSYYTMGWYRQAPGKERELVAAISARGGRTYYADSVKGRFTISRDNAKNTVYLQMNSLKPEDTAVYYCAASWSTEYYWGQGTQVTVSS	high polyreactivity
QVQLVESGGGLVQAGGSLRLSCAASGIIFSYYTMGWYRQAPGKERELVAAISRTGGRTYYADSVKGRFTISRDNAKNTVYLQMNSLKPEDTAVYYCAAEQQYASICYDYWGQGTEVTVSS	high polyreactivity
QVQLVESGGGLVQAGGSLRLSCAASGIIFTGYTMGWYRQAPGKERELVAAITWRGGCTYYADSVKGRFTISRDNAKNTVYLQMNSLKPEDTAVYYCAAEGWYSWDDDYWGQGTQVTVSS	low polyreactivity
QVQLVESGGGLVQAGGSLRLSCAASGIIFTKYFMGWYRQAPGKERELVAAINTDGGSTRYADSVKGRFTISRDNAKNTVYLQMNSLKPEDTAVYYCAAVSSRRPGYEYYYWGQGTQVTVSS	high polyreactivity
QVQLVESGGGLVQAGGSLRLSCAASGIIFTPNAMGWSRQAPGKERELVAAINYGGDTTYYADSVKGRFTISRDNAKNTVYFQMNSLKPADTAVYYCATDGTTPTPRDAFVRFDHWGQGTQVTVSS	low polyreactivity
QVQLVESGGGLVQAGGSLRLSCAASGIIFTRNAKGWSRQAPGKERELVAAISRSGGRTSYADSVKGRFTISRDNAKNTVYLHMNSLKPEDTEVYYCYARTTSGWGQGTQVTVSS	high polyreactivity
QVQLVESGGGLVQAGGSLRLSCAASGIIFTRNAMGWYRQATGKERELVAAITYGGSTYYADSVKGRFTISRDNAKNTVYLQMNSLKPEDTAVYYCAVDAYRYRVHSYGKKYGYNYWGQGTQVTVSS	high polyreactivity
QVQLVESGGGLVQAGGSLRLSCAASGIIFTSNTMGWYRQAPGKEREFVASINWNGSSTNADSVKGRFTISRDNAKNTVYLQMNSLKPEDTAVYYCNADYNRNSVQFSLYDYWGQGTQVTVSS	low polyreactivity
